The target of assay [1] is AIDSVAX recombinant gp120 immunogen A244 (AIDSVAX subtype E) (HIV-1 subtype E (CRF01_AE) strain A244). In words: ELISA, gp120 coated at 3 µg/ml, antibody titrated 0.002-10 µg/ml. (In an ELISA, binding on a coated surface is turned into a signal by an enzyme label.)
The target in assay [2] is AIDSVAX recombinant gp120 immunogen MN (AIDSVAX subtype B) (HIV-1 subtype B strain MN) (UniProt P05877). The assay is described as above.

As a reminder, the EC50 is the concentration that produces a half-maximal response. Consider human anti-V2 monoclonal antibody 2158, for which the EC50 is 4.1 ng/mL in assay [1] and 3.9 ng/mL in assay [2].

Regarding human anti-V2 monoclonal antibody 697-D, the EC50 in assay [1] stood at 5.7 ng/mL; in assay [2], 5.5 ng/mL.
